# Test results from US20070154481A1 (UCB, published 2007).
# “And” between values parts separate entries of the source, which are not always exact repeats. Equal entries are not always repeated.
# T1: Recombinant cynomologous monkey IL-6 (cynomolgus monkey, UniProt P79341 28-212, limits assumed)
# T1 sequence (looked up): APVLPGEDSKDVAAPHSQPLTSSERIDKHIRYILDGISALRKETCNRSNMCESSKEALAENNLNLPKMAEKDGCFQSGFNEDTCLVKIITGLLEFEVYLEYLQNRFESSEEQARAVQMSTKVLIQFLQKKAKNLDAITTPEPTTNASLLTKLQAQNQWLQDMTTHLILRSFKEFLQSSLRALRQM
# T2: Recombinant Rhesus monkey IL-6 (rhesus monkey, UniProt P51494 28-212, limits assumed)
# T2 sequence (looked up): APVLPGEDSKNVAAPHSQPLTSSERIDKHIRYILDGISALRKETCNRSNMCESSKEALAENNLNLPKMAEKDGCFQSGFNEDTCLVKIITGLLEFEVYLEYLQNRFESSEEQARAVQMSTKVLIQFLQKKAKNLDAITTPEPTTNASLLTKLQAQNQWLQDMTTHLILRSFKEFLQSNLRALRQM
# B1: CA030-00240.g1 whole IgG4 (antibody, V domains shown)
# VH: EVQLVESGGGLVQPGGSLRLSCAASGFNFNDYFMNWVRQAPGKGLEWVAQMRNKNYQYGTYYAESLEGRFTISRDDSKNSLYLQMNSLKTEDTAVYYCARESYYGFTSYWGQGTLVTVSS
# VL: DIQMTQSPSSLSASVGDRVTITCQASQDIGISLSWYQQKPGKAPKLLIYNANNLADGVPSRFSGSGSGTDFTLTISSLQPEDFATYYCLQHNSAPYTFGQGTKLEIKR
# notes: Made in CHO cells; also called CA030-240.g1; CA030_240.g1
# Assays:
# Recombinant human IL-6 [1] = molecular target: T3, Recombinant human IL-6 (human, UniProt P05231 29-212); assay: BIAcore 3000; IgG4 captured by anti-human Fc F(ab')2, human IL-6 as analyte
# T3 construct: Bought protein; also called human recombinant IL-6; hIL-6
# Method: (§1) BIA (Biamolecular Interaction Analysis) was performed using a BIAcore 3000 (BIAcore AB). Affinipure F(ab′)₂ Fragment goat anti-human IgG, Fc fragment specific (Jackson ImmunoResearch) was immobilised on a CM5 Sensor Chip via amine coupling chemistry to a capture level of ≈5000 response units (RUs). HBS-EP buffer (10 mM HEPES pH 7.4, 0.15 M NaCl, 3 mM EDTA, 0.005% Surfactant P20, BIAcore AB) was used as the running buffer with a flow rate of 10 μl/min. A 10 μl injection of CA030₋240.g1 at 4 μg/mL was used for capture by the immobilised anti-human IgG-Fc. Human IL-6 was titrated over the captured CAO30₋240.g1 at various concentrations at a flow rate of 30 μL/min. The surface was regenerated by a 10 μL injection of 40 mM HCl, followed by a 5 μL injection of 5 mM NaOH at a flowrate of 10 μL/min.
# (§2) Background subtraction binding curves were analysed using the BIAevaluation software (version 3.2) following standard procedures. Kinetic parameters were determined from the fitting algorithm.
# Recombinant human IL-6 [2] = molecular target: T3, Recombinant human IL-6; assay: BIAcore 3000; mean of the two determinations of Table 1.1
# Method: as §1, §2
# One batch of CA030₋240.g1 was used in this study.
# [3] = molecular target: T1, Recombinant cynomologous monkey IL-6; assay: cell-based or functional assay
# [4] = molecular target: T2, Recombinant Rhesus monkey IL-6; assay: cell-based or functional assay
# [5] = molecular target: Human mammalian-derived IL-6 (human, UniProt P05231 30-212); assay: cell-based or functional assay
# Recombinant human IL-6 [6] = molecular target: T3, Recombinant human IL-6; assay: cell-based or functional assay
binder,measurement,setting,value
B1,Kd,Recombinant human IL-6 [1],10.5 pM and 9.02 pM
same,koff,Recombinant human IL-6 [1],7.68e-06 s⁻¹
same,kon,Recombinant human IL-6 [1],731000 M⁻¹ s⁻¹ and 852000 M⁻¹ s⁻¹
same,Kd,Recombinant human IL-6 [2],9.76 pM
same,"ND50, inhibition of IL-6 induced proliferation of T1165 cells",[3],5.4 ng/ml and 35.6 pM
same,"ND50, inhibition of IL-6 induced proliferation of T1165 cells",[4],2.2 ng/ml and 14.5 pM
same,"ND50, inhibition of IL-6 induced proliferation of T1165 cells",[5],3.6 ng/ml and 23.8 pM
same,"ND50, inhibition of IL-6 induced proliferation of T1165 cells",Recombinant human IL-6 [6],1.1 ng/ml and 7.26 pM
